According to PMC7176292:

Tests used:
[1] = biological target: human μ-opioid receptor (μOR), wild type, with HA signal sequence at the N terminus and LgBiT at the C terminus (modified pfastbac1) (human) (UniProt P35372); assay: split reporter (BiFC, NanoBiT); NanoBiT on Sf9 membranes co-expressing μOR-LgBiT, Gαi1, Gβ1-SmBiT and Gγ2, in PBS pH 7.4; dose-response of FD-3, 15 min at room temperature, luminescence; normalized to DAMGO
[2] = biological target: human μ-opioid receptor (μOR), wild type, with HA signal sequence at the N terminus and LgBiT at the C terminus (modified pfastbac1) (human) (UniProt P35372); assay: split reporter (BiFC, NanoBiT); NanoBiT on Sf9 membranes co-expressing μOR-LgBiT, Gαi1, Gβ1-SmBiT and Gγ2, in PBS pH 7.4; dose-response of fentanyl, 15 min at room temperature, luminescence; normalized to DAMGO

Sequence of Gi protein complex (Gαi1, Gβ1 with SmBiT at the C terminus, Gγ2) (P63096 whole entry): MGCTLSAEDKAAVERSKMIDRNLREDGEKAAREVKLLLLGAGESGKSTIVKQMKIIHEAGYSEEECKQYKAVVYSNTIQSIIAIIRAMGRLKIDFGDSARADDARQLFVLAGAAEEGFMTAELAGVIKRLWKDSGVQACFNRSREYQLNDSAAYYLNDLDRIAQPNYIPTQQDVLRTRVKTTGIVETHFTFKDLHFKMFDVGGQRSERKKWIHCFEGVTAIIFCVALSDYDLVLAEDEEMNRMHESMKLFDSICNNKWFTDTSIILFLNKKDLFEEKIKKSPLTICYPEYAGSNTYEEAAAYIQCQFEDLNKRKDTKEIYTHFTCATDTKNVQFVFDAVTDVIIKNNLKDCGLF
Sequence of Gi protein complex (Gαi1, Gβ1 with SmBiT at the C terminus, Gγ2) (P62873 whole entry): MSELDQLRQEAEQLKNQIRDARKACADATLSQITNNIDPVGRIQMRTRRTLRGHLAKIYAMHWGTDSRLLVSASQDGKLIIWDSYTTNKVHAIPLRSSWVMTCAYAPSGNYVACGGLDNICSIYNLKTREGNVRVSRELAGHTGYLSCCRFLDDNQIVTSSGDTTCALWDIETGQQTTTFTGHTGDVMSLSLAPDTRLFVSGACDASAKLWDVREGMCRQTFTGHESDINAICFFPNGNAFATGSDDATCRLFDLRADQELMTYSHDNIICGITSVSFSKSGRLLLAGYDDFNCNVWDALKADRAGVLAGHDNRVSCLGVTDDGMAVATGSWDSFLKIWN
Sequence of Gi protein complex (Gαi1, Gβ1 with SmBiT at the C terminus, Gγ2) (P59768 whole entry): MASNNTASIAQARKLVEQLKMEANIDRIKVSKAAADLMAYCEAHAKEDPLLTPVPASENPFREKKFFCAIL

## Gi protein complex (Gαi1, Gβ1 with SmBiT at the C terminus, Gγ2) (from UniProt P63096 1-354; P62873 1-340; P59768 1-71)
[1]
  maximal coupling efficiency relative to morphine: 67%
[2]
  maximal Gi coupling (normalized to DAMGO): > 55%
